The target in experiment [1] is T1, recombinant bovine FcgR2 (bovine, UniProt Q28110 43-225, limits assumed, biotin on the BAP tag (BirA)).
T1 construct: also called bFcgR2; bFcgRII
T1 sequence: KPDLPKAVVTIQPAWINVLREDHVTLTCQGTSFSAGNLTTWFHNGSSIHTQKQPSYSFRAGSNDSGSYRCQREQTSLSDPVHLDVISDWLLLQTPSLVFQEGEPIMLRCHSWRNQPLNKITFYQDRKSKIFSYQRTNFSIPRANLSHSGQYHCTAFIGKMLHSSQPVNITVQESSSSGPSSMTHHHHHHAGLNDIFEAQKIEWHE
Nature of the experiment: SPR Biacore, biotinylated receptor on SA sensor, pH 7.4, 15 C. The procedure: (§1) A Biacore SPR binding assay was designed to test the affinity of bovine IgG subclasses to bFcgR1, bFcgR2 and bFcgR3. All reported KD's were measured by Biacore (Cytiva, Marlborough, MA, USA) using series S SA sensor. Biotinylated-bovine FcgR1, R2 and R3 were captured on the sensor surface using a modified SA capture method to reach the desired surface density. 10 mM HEPES, 150 mM NaCl, 3 mM EDTA, 0.05% v/v surfactant P20, pH7.4 buffer was used as the running and titration buffer. Various concentrations of bovine CTLA4-Fc fusions or mAbs were titrated and flowed over the receptor surface and affinities were determined using Biacore T200 Evaluation software (Cytiva, Marlborough, MA, USA) with 1:1 binding model. The method of double referencing has been applied where the reference flow cell was subtracted from the flow cell containing immobilized receptors and blank runs containing buffer only were subtracted out from all runs. Flow cells were regenerated using 10 mM Glycine pH1.5. Runs were performed at 15° C.
Biacore methods for bFcgR1, R2, and R3 were performed as described in Examples above. […] Although the two allotypes have different KDs for bFcgR2 and bFcgR3, both wildtype allotypes do bind. All of the mutations, bIgG3Win, bIgG3WinSAS, bIgG3SAS and bIgG3SAP for both the a and b allotypes knocked down binding to bFcgR1, bFcgR2 and bFcgR3 to negligible affinities. Thus, for knocking out receptor binding, the two allotypes compare similarly.

Experiment [2] addresses T2, complement component C1q (in bovine complement preserved serum) (bovine, UniProt Q5E9E3 23-244; Q2KIV9 23-247). Nature of the experiment: cell-based or functional assay.
The target in experiment [3] is T2, complement component C1q (in bovine …). Nature of the experiment: cell-based or functional assay. This is another data set of the same source.
Experiment [4] has as its target T3, recombinant bovine FcgR1 (bovine, biotin on the BAP tag (BirA)).
T3 construct: also called bFcgR1; bFcgRI
Put plainly: SPR Biacore, biotinylated receptor on SA sensor, pH 7.4, 15 C. On the procedure:
as §1
(§2) The ability to knock out binding to bovine Fc gamma receptors was evaluated by comparing SPR Biacore bFcgR affinity of bIgG1a and bIgG1b wildtype Fc to the bIgG1a and bIgG1b mutations, described above. All mutations made to bIgG1 are identical for the a and b allotypes. Biacore methods for bFcgR1, R2, and R3 were performed as described in Example 1.

For experiment [5], the target named is T4, recombinant bovine FcgR3 (bovine, UniProt P79107 17-208, limits assumed, biotin on the BAP tag (BirA)).
T4 construct: also called bFcgR3; bFcgRIII
T4 sequence: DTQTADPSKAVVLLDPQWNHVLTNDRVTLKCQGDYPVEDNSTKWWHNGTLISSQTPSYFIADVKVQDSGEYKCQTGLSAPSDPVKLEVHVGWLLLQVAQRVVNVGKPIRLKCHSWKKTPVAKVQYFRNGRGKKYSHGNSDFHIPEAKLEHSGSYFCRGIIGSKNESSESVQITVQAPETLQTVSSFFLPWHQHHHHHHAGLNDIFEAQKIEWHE
The experiment is described as above. The procedure: as §1, §2

Experiment [6] addresses T1, recombinant bovine FcgR2. The experiment is described as above. The procedure: as §1, §2
The source holds these as a separate data set.

Like-named read-outs stand apart in the source and are kept apart here.

T2 sequence (Q5E9E3 23-244, chain 1 of 2): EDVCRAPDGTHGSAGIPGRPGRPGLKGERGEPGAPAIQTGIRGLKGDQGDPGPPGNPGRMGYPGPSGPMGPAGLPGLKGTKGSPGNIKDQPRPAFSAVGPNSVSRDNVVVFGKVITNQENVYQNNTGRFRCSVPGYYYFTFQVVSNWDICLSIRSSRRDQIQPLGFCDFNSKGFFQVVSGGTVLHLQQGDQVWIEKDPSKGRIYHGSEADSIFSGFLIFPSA
T2 sequence (Q2KIV9 23-247, chain 2 of 2): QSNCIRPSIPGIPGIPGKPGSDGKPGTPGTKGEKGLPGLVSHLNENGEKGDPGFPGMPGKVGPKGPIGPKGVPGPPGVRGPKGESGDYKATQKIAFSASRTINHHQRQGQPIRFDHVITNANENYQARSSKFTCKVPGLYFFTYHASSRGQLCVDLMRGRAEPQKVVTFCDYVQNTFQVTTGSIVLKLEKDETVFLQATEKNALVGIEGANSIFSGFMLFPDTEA

B1: CTLA4 Fc bIgG3bSAP (Fc fusion)
chain: DMHVAQPAVVLASSRGVASFVCEYGSSGNAAEVRVTVLRQAGSQMTEVCAATYTVEDELAFLDDSTCTGTSSGNKVNLTIQGLRAMDTGLYICKVELMYPPPYYVGMGNGTQIYVIDPEPCPDSDTARRPVPTTPKTTIPPGKPTTQESEVEKTPCQCSKCPEPLGGLSVFIFPPKPKDTLTISGTPEVTCVVVDVGQDDPEVQFSWFVDDVEVHTARTKPREEQFNSTYRVVSALRIQHQDWLQGKEFKCKVNNKGLSAPIVRTISRTKGQAREPQVYVLAPPREELSKSTLSLTCLITGFYPEEIDVEWQRNGQPESEDKYHTTAPQLDADGSYFLYSRLRVNKSSWQEGDHYTCAVMHEALRNHYKEKSISRSPGK
notes: No linker
On to B1, for which, in experiment [1], the binding result was “no binding”.

B2: CTLA4 Fc bIgG3bWin (Fc fusion)
chain: DMHVAQPAVVLASSRGVASFVCEYGSSGNAAEVRVTVLRQAGSQMTEVCAATYTVEDELAFLDDSTCTGTSSGNKVNLTIQGLRAMDTGLYICKVELMYPPPYYVGMGNGTQIYVIDPEPCPDSDTARRPVPTTPKTTIPPGKPTTQESEVEKTPCQCSKCPEAAGALSVFIFPPKPKDTLTISGTPEVTCVVVDVGQDDPEVQFSWFVDDVEVHTARTKPREEQFNSTYRVVSALRIQHQDWLQGKEFKCKVNNKGLPAPIVRTISRTKGQAREPQVYVLAPPREELSKSTLSLTCLITGFYPEEIDVEWQRNGQPESEDKYHTTAPQLDADGSYFLYSRLRVNKSSWQEGDHYTCAVMHEALRNHYKEKSISRSPGK
notes: No linker
For B2, the binding result in experiment [1] was “no binding”. In experiment [2], the “CDC EC50 Value” turned out to be 0.062 µg/mL.

B3: CTLA4 Fc bIgG3bSAS (Fc fusion)
chain: DMHVAQPAVVLASSRGVASFVCEYGSSGNAAEVRVTVLRQAGSQMTEVCAATYTVEDELAFLDDSTCTGTSSGNKVNLTIQGLRAMDTGLYICKVELMYPPPYYVGMGNGTQIYVIDPEPCPDSDTARRPVPTTPKTTIPPGKPTTQESEVEKTPCQCSKCPEPLGGLSVFIFPPKPKDTLTISGTPEVTCVVVDVGQDDPEVQFSWFVDDVEVHTARTKPREEQFNSTYRVVSALRIQHQDWLQGKEFKCKVNNKGLSASIVRTISRTKGQAREPQVYVLAPPREELSKSTLSLTCLITGFYPEEIDVEWQRNGQPESEDKYHTTAPQLDADGSYFLYSRLRVNKSSWQEGDHYTCAVMHEALRNHYKEKSISRSPGK
notes: No linker
B3: in experiment [1], the binding result is “no binding”.

B4: CTLA4 Fc bIgG3bWinSAS (Fc fusion)
chain: DMHVAQPAVVLASSRGVASFVCEYGSSGNAAEVRVTVLRQAGSQMTEVCAATYTVEDELAFLDDSTCTGTSSGNKVNLTIQGLRAMDTGLYICKVELMYPPPYYVGMGNGTQIYVIDPEPCPDSDTARRPVPTTPKTTIPPGKPTTQESEVEKTPCQCSKCPEAAGALSVFIFPPKPKDTLTISGTPEVTCVVVDVGQDDPEVQFSWFVDDVEVHTARTKPREEQFNSTYRVVSALRIQHQDWLQGKEFKCKVNNKGLSASIVRTISRTKGQAREPQVYVLAPPREELSKSTLSLTCLITGFYPEEIDVEWQRNGQPESEDKYHTTAPQLDADGSYFLYSRLRVNKSSWQEGDHYTCAVMHEALRNHYKEKSISRSPGK
notes: No linker
For B4, the binding result in experiment [1] is “no binding”.

B5: CTLA4 Fc bIgG1b (Fc fusion)
chain: DMHVAQPAVVLASSRGVASFVCEYGSSGNAAEVRVTVLRQAGSQMTEVCAATYTVEDELAFLDDSTCTGTSSGNKVNLTIQGLRAMDTGLYICKVELMYPPPYYVGMGNGTQIYVIDPEPCPDSDDPTCKPSPCDCCPPPELPGGPSVFIFPPKPKDTLTISGTPEVTCVVVDVGHDDPEVKFSWFVDDVEVNTATTKPREEQFNSTYRVVSALRIQHQDWTGGKEFKCKVHNEGLPAPIVRTISRTKGPAREPQVYVLAPPQEELSKSTVSLTCMVTSFYPDYIAVEWQRNGQPESEDKYGTTPPQLDADSSYFLYSKLRVDRNSWQEGDTYTCVVMHEALHNHYTQKSTSKSAGK
notes: No linker; also called bIgG1b wildtype; CTLA4 Fc bIgG1b wildtype
As to B5, in experiment [3], the “CDC EC50 Value” was determined as 0.036 µg/mL. The dissociation constant (Kd) was determined as 0.463 nM in experiment [4], 13.7 nM in experiment [5] and 2.48 nM in experiment [6].

B6: CTLA4 Fc bIgG1bWinSAS (Fc fusion)
chain: DMHVAQPAVVLASSRGVASFVCEYGSSGNAAEVRVTVLRQAGSQMTEVCAATYTVEDELAFLDDSTCTGTSSGNKVNLTIQGLRAMDTGLYICKVELMYPPPYYVGMGNGTQIYVIDPEPCPDSDDPTCKPSPCDCCPPPEAAGAPSVFIFPPKPKDTLTISGTPEVTCVVVDVGHDDPEVKFSWFVDDVEVNTATTKPREEQFNSTYRVVSALRIQHQDWTGGKEFKCKVHNEGLSASIVRTISRTKGPAREPQVYVLAPPQEELSKSTVSLTCMVTSFYPDYIAVEWQRNGQPESEDKYGTTPPQLDADSSYFLYSKLRVDRNSWQEGDTYTCVVMHEALHNHYTQKSTSKSAGK
notes: No linker
As for B6, the binding result in experiment [6] was “no binding”.

B7: CTLA4 Fc bIgG1bWin (Fc fusion)
chain: DMHVAQPAVVLASSRGVASFVCEYGSSGNAAEVRVTVLRQAGSQMTEVCAATYTVEDELAFLDDSTCTGTSSGNKVNLTIQGLRAMDTGLYICKVELMYPPPYYVGMGNGTQIYVIDPEPCPDSDDPTCKPSPCDCCPPPEAAGAPSVFIFPPKPKDTLTISGTPEVTCVVVDVGHDDPEVKFSWFVDDVEVNTATTKPREEQFNSTYRVVSALRIQHQDWTGGKEFKCKVHNEGLPAPIVRTISRTKGPAREPQVYVLAPPQEELSKSTVSLTCMVTSFYPDYIAVEWQRNGQPESEDKYGTTPPQLDADSSYFLYSKLRVDRNSWQEGDTYTCVVMHEALHNHYTQKSTSKSAGK
notes: No linker
Consider B7, for which the “CDC EC50 Value” in experiment [3] worked out at 0.015 µg/mL. The values for the Kd in experiment [4] and in experiment [6] were 3.73 nM and 3.24 nM, respectively.

B8: CTLA4 Fc bIgG1bSAS (Fc fusion)
chain: DMHVAQPAVVLASSRGVASFVCEYGSSGNAAEVRVTVLRQAGSQMTEVCAATYTVEDELAFLDDSTCTGTSSGNKVNLTIQGLRAMDTGLYICKVELMYPPPYYVGMGNGTQIYVIDPEPCPDSDDPTCKPSPCDCCPPPELPGGPSVFIFPPKPKDTLTISGTPEVTCVVVDVGHDDPEVKFSWFVDDVEVNTATTKPREEQFNSTYRVVSALRIQHQDWTGGKEFKCKVHNEGLSASIVRTISRTKGPAREPQVYVLAPPQEELSKSTVSLTCMVTSFYPDYIAVEWQRNGQPESEDKYGTTPPQLDADSSYFLYSKLRVDRNSWQEGDTYTCVVMHEALHNHYTQKSTSKSAGK
notes: No linker
On to B8, for which the binding result in experiment [6] is reported as “no binding”.

B9: CTLA4 Fc bIgG1bWinSS (Fc fusion)
chain: DMHVAQPAVVLASSRGVASFVCEYGSSGNAAEVRVTVLRQAGSQMTEVCAATYTVEDELAFLDDSTCTGTSSGNKVNLTIQGLRAMDTGLYICKVELMYPPPYYVGMGNGTQIYVIDPEPCPDSDDPTCKPSPCDCCPPPEAAGAPSVFIFPPKPKDTLTISGTPEVTCVVVDVGHDDPEVKFSWFVDDVEVNTATTKPREEQFNSTYRVVSALRIQHQDWTGGKEFKCKVHNEGLPSSIVRTISRTKGPAREPQVYVLAPPQEELSKSTVSLTCMVTSFYPDYIAVEWQRNGQPESEDKYGTTPPQLDADSSYFLYSKLRVDRNSWQEGDTYTCVVMHEALHNHYTQKSTSKSAGK
notes: No linker
For the molecule B9, the Kd in experiment [4] came out at 70.4 nM.

B10: CTLA4 Fc bIgG1bSAP (Fc fusion)
chain: DMHVAQPAVVLASSRGVASFVCEYGSSGNAAEVRVTVLRQAGSQMTEVCAATYTVEDELAFLDDSTCTGTSSGNKVNLTIQGLRAMDTGLYICKVELMYPPPYYVGMGNGTQIYVIDPEPCPDSDDPTCKPSPCDCCPPPELPGGPSVFIFPPKPKDTLTISGTPEVTCVVVDVGHDDPEVKFSWFVDDVEVNTATTKPREEQFNSTYRVVSALRIQHQDWTGGKEFKCKVHNEGLSAPIVRTISRTKGPAREPQVYVLAPPQEELSKSTVSLTCMVTSFYPDYIAVEWQRNGQPESEDKYGTTPPQLDADSSYFLYSKLRVDRNSWQEGDTYTCVVMHEALHNHYTQKSTSKSAGK
notes: No linker
As for B10, in experiment [6], the binding result is “no binding”.

The values are drawn from US20230416410A1 (ZOETIS SERVICES, published 2023).
